{"source": "paper PMC5337904", "about": "“A novel cytochrome P450, CYP3201B1, is involved in (R)‐mandelonitrile biosynthesis in a cyanogenic millipede” (FEBS Open Bio, 2017)", "conditions_in_all_cases": "50 nM enzyme, 2 mM NADPH, 50 mM potassium phosphate pH 6.5, 35 °C, 5 min, with yeast P450 reductase", "key": {"CYP3201B1": {"biological_target": "CYP3201B1 (Chamberlinius hualienensis, UniProt A0A1J1DVP9)", "sequence (A0A1J1DVP9 1-501 limits assumed)": "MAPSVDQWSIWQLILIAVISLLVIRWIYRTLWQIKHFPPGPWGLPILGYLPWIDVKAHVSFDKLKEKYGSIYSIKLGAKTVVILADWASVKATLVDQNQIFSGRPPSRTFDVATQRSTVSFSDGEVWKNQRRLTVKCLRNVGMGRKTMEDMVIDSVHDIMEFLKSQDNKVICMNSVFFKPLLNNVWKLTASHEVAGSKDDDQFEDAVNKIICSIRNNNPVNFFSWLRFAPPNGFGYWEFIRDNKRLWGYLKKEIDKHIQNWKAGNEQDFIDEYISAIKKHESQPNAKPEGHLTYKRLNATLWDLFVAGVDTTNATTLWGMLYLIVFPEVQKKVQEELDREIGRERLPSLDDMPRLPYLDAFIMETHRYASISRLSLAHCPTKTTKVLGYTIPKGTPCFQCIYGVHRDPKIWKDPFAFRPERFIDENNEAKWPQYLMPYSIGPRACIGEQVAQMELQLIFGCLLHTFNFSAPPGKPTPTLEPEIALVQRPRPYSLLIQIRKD"}, "Cc1cccc(CC#N)c1": {"tested_on": "Cc1cccc(CC#N)c1", "assay": "cells, lysate or membranes"}, "Cc1ccccc1CC#N": {"tested_on": "Cc1ccccc1CC#N", "assay": "cells, lysate or membranes"}}, "note": "Where two headings read alike, the source gives them in different places."}
{"compound": "N#CCc1ccc(O)cc1", "note": "[4‐HydroxyPAN]", "values": [{"measurement": "Km", "setting": "CYP3201B1", "result": "15.8 ± 1.2", "unit": "µM"}]}
{"compound": "N#CCc1ccccc1", "note": "[PAN]", "values": [{"measurement": "Km", "setting": "CYP3201B1; product (R)-mandelonitrile", "result": "9.2 ± 2.3", "unit": "µM"}]}
{"compound": "CYP3201B1 (Chamberlinius hualienensis)", "values": [{"measurement": "Km", "setting": "Cc1cccc(CC#N)c1", "result": "6.9 ± 1.3", "unit": "µM"}, {"measurement": "kcat", "setting": "Cc1cccc(CC#N)c1", "result": "1.09 ± 0.0433", "unit": "s⁻¹"}, {"measurement": "kcat/Km", "setting": "Cc1cccc(CC#N)c1", "result": 158000, "unit": "M⁻¹ s⁻¹"}, {"measurement": "Km", "setting": "Cc1ccccc1CC#N", "result": "6.6 ± 1.6", "unit": "µM"}, {"measurement": "kcat", "setting": "Cc1ccccc1CC#N", "result": "1.12 ± 0.07", "unit": "s⁻¹"}, {"measurement": "kcat/Km", "setting": "Cc1ccccc1CC#N", "result": 170000, "unit": "M⁻¹ s⁻¹"}]}
